According to paper PMC11437077:

Target: mouse PD-1 wild type expressed on CHO cells (mouse) (UniProt Q02242)
Assay: biomembrane force probe (BFP), force-ramp spectroscopy (rupture force); PD-L1- or PD-L2-coated glass bead on a micropipette-aspirated RBC against a CHO cell expressing PD-1; continuous retraction until bond rupture; nominal loading rate 1000 pN/s; BFP spring constant 0.3 pN/nm

Chain of mouse PD-1 wild type expressed on CHO cells (mouse) (Q02242 25-288): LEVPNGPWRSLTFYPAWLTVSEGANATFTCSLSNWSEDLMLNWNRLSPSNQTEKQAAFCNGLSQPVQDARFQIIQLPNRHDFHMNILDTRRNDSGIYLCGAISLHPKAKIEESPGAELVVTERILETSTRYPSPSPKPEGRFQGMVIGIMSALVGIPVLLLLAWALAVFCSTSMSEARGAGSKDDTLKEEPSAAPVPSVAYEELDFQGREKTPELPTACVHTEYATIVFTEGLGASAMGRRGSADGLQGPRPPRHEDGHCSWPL
Chain of mouse PD-L2 with C-terminal biotin (Q9WUL5 20-221): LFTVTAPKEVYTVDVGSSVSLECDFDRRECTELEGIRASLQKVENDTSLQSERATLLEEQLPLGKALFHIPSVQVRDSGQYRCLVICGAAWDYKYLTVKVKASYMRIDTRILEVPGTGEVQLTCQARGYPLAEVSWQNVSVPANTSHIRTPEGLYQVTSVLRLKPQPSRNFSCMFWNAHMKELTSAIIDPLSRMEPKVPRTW

F1/2 (force at which 50% of the bonds rupture): 12.1 pN
Substance: mouse PD-L2 with C-terminal biotin (from UniProt Q9WUL5 20-221) (ligand)
